Reference: patent US20050239704

Biological target: T1, SarA (Staphylococcus aureus) (UniProt Q2G2U9)
T1 sequence: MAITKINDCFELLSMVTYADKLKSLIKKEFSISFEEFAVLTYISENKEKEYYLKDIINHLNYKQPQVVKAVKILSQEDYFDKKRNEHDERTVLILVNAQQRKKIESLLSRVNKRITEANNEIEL
Assay: EMSA
Conditions: 2-5 ng radiolabeled P1 fragment; scale: fold more protein than SarR for complete shift

sarA P1 promoter fragment (nt 531-859) was tested, and the binding signal was 10.
